# Data as given in the supplement of paper PMC7125110.
# ± gives the standard error. This sample holds only a part of the variants without activity.
# B1: glmS ribozyme (parent)
# chain: AUAAAAGCGCCAGAACUACAGAAAUGUAGUUGACGAGGAGGAGGUUUAUCGAAUUUUCGGCGGAUGCCUCCAAA
# Columns and labels:
# Conditions in all cases: with glucosamine-6-phosphate
# glucosamine-6-phosphate [1] = variants of: B1; experiment: self-cleavage kobs at 640 uM GlcN6P; higher = faster cleavage; RNA array
# Outline: (§1)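 kobs was derived by fitting per-tile medians to one- or two-exponential decays after normalising signals to baseline and to non-cleaving reference variants. Those signals came from barcoded ribozyme variants transcribed in situ by E. coli RNA polymerase on sequenced MiSeq chips, followed through a hybridised Cy3 probe at 37 °C and imaged over ~14 h. Glucosamine-6-phosphate (40 μM to 10 mM) in HEPES/KCl/Mg(OAc)2 buffer was flowed in. Weighted Michaelis–Menten fits across concentrations then gave kcat and KM.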
# glucosamine-6-phosphate [2] = variants of: B1; experiment: self-cleavage kobs at 2500 uM GlcN6P; higher = faster cleavage; RNA array
# Outline: as §1
# glucosamine-6-phosphate [3] = variants of: B1; experiment: self-cleavage kobs at 10000 uM GlcN6P; higher = faster cleavage; RNA array
# Outline: as §1
Variant,self-cleavage kobs at 640 uM GlcN6P (glucosamine-6-phosphate [1]) [s⁻¹],self-cleavage kobs at 2500 uM GlcN6P (glucosamine-6-phosphate [2]) [s⁻¹],self-cleavage kobs at 10000 uM GlcN6P (glucosamine-6-phosphate [3]) [s⁻¹]
A12C G29A G43U C71G,< 1e-05,< 1e-05,–
G13U A39G C67A,9.82e-05 ± 3.9e-05,–,–
C11G C16A C50G U65G,0.000148 ± 5.2e-05,–,–
A12C U47A C50A U55A C58U A64G,< 1e-05,–,–
G13C A15C A52U G66C,< 1e-05,–,–
U17C G44U U47C,< 1e-05,–,–
G29C A42C A48C,< 1e-05,–,–
C10U A14U C16G U45G,< 1e-05,–,–
C11U U56A C70G,0.000217 ± 5.8e-05,0.000145 ± 3e-05,–
C16U U31C G32C G44A U49G C61G U65A,< 1e-05,< 1e-05,–
C10G G44C,< 1e-05,< 1e-05,–
C11A G38A U47C,< 1e-05,–,–
A12G G66C C68A,6.5e-05 ± 2.5e-05,–,–
A14C C16A C71G,6.58e-05 ± 2.7e-05,4.2e-05 ± 2.1e-05,–
G29A C34U G44C A53U C68U,< 1e-05,–,–
C10U A15G G37A G38C A53U,< 1e-05,–,–
C16A U31C A33G C34A A52U C68U,< 1e-05,–,–
G13C A48G U49C,< 1e-05,–,–
U31G G60U U65A,< 1e-05,–,–
G29C U30G A33U C58U,< 1e-05,< 1e-05,–
A15U C34G G63A,< 1e-05,–,–
C11G G13C G38C C58A,< 1e-05,< 1e-05,–
A14C G32A G40U G59C,< 1e-05,–,–
G13U G43C A64G,< 1e-05,–,–
C10U C11G A14G C16A G41A G51U,< 1e-05,–,–
A14G C16U G41A,0.00178 ± 0.00032,0.0028 ± 0.00078,–

Variant,self-cleavage kobs at 640 uM GlcN6P (glucosamine-6-phosphate [1]) [s⁻¹],self-cleavage kobs at 2500 uM GlcN6P (glucosamine-6-phosphate [2]) [s⁻¹],self-cleavage kobs at 10000 uM GlcN6P (glucosamine-6-phosphate [3]) [s⁻¹]
A15G C16A U30C,0.000332 ± 0.00012,0.00063 ± 0.00023,–
A12G A33C C50A C68G,0.000144 ± 6.5e-05,0.00016 ± 6.5e-05,–
C11A A48U C70A,9.74e-05 ± 2.9e-05,–,–
C10U C61A C67G C71G,0.000112 ± 3.5e-05,7.34e-05 ± 2.4e-05,–
C16G G41C G62A A64G,< 1e-05,< 1e-05,–
C11A G59A C61G C70A,0.000163 ± 7.6e-05,–,–
C16G A48G U56G G59A,< 1e-05,–,–
G13C U56A C58G C71U,3.8e-05 ± 1.2e-05,6.28e-05 ± 1.9e-05,–
A14G G29A G32U,0.000272 ± 0.0001,0.000568 ± 0.00014,–
A15C G32A G38U,< 1e-05,–,–
A14C A33C C67G,< 1e-05,–,–
G29U G32U C58U C67A,3.68e-05 ± 1.8e-05,8.93e-05 ± 2.6e-05,–
C10G G13U G41U U49G,< 1e-05,–,–
C11G G13A C70G,0.000406 ± 0.00015,6.69e-05 ± 3.1e-05,–
U30C G32U G44A A48C U57A,< 1e-05,< 1e-05,–
C16G A39G C71A,0.000265 ± 9.1e-05,0.000286 ± 0.00013,–
A14C G40U A52U,< 1e-05,–,–
U30A A33G U57C,< 1e-05,–,–
A15C C16U U17A A18C C19A A36G G44U,< 1e-05,–,–
C10G A14G A36C G62U,< 1e-05,–,–
U30C A33G A52G,< 1e-05,–,–
G29C G43U A48G C71A,< 1e-05,< 1e-05,–
G21U G26U U65G G66U U69G,0.000207 ± 8.9e-05,–,–
C10U G29A C61A G62A C70U,7.67e-05 ± 3.8e-05,–,–
A14C A39G C70U,0.000886 ± 0.00029,–,–
G29U A53C G62C,< 1e-05,–,–

Variant,self-cleavage kobs at 640 uM GlcN6P (glucosamine-6-phosphate [1]) [s⁻¹],self-cleavage kobs at 2500 uM GlcN6P (glucosamine-6-phosphate [2]) [s⁻¹],self-cleavage kobs at 10000 uM GlcN6P (glucosamine-6-phosphate [3]) [s⁻¹]
A14G G32C U45A C70G,< 1e-05,–,–
G29C A39C C61G,< 1e-05,–,–
U30A G41U G43U U54C,< 1e-05,–,–
G29U G35C A52G,< 1e-05,< 1e-05,–
A12U C67U C71G,7.19e-05 ± 2.7e-05,6.07e-05 ± 1.3e-05,4.02e-05 ± 2e-05
A14G G29C A33C,< 1e-05,–,–
C11A U30C A53C C71U,< 1e-05,–,–
A14G G29U G38C U56C,< 1e-05,–,–
G29C G37U U46A,< 1e-05,< 1e-05,< 1e-05
U30A G38A C50A G66U,< 1e-05,–,–
A14G G43U G63U C70A,< 1e-05,< 1e-05,–
G13U G35U G37U,< 1e-05,–,–
A14G A33U G44U U47C G63U,< 1e-05,< 1e-05,< 1e-05
U31C G41A G63C C68A,< 1e-05,–,–
A15C A33C A36C,< 1e-05,–,–
A15C A33U G40A,< 1e-05,–,–
A15U G35U G59A,< 1e-05,–,–
C11U A36U G44C G62U,< 1e-05,–,–
U31G G37C U69G,9.22e-05 ± 3.2e-05,–,–
U31A A33U A48G,< 1e-05,< 1e-05,–
A14C U49G C68U,< 1e-05,–,–
C16U A39U G66U,0.000779 ± 0.00014,0.00146 ± 0.00036,–
U31G A36U G38U A48U A53C G59C A64C,< 1e-05,–,–
G13U G32A C70A,5.59e-05 ± 2.4e-05,0.000106 ± 3.2e-05,–
